Assay results published in IntAct's records for PubMed 25910212.

B1: Mothers against decapentaplegic homolog 3 (Homo sapiens), P84022 (parent)
chain: MSSILPFTPPIVKRLLGWKKGEQNGQEEKWCEKAVKSLVKKLKKTGQLDELEKAITTQNVNTKCITIPRSLDGRLQVSHRKGLPHVIYCRLWRWPDLHSHHELRAMELCEFAFNMKKDEVCVNPYHYQRVETPVLPPVLVPRHTEIPAEFPPLDDYSHSIPENTNFPAGIEPQSNIPETPPPGYLSEDGETSDHQMNHSMDAGSPNLSPNPMSPAHNNLDLQPVTYCEPAFWCSISYYELNQRVGETFHASQPSMTVDGFTDPSNSERFCLGLLSNVNRNAAVELTRRHIGRGVRLYYIGGEVFAECLSDSAIFVQSPNCNQRYGWHPATVCKIPPGCNLKIFNNQEFAALLAQSVNQGFEAVYQLTRMCTIRMSFVKGWGAEYRRQTVTSTPCWIELHLNGPLQWLDKVLTQMGSPSIRCSSVS
B2: Emerin (Homo sapiens), P50402 (parent)
chain: MDNYADLSDTELTTLLRRYNIPHGPVVGSTRRLYEKKIFEYETQRRRLSPPSSSAASSYSFSDLNSTRGDADMYDLPKKEDALLYQSKGYNDDYYEESYFTTRTYGEPESAGPSRAVRQSVTSFPDADAFHHQVHDDDLLSSSEEECKDRERPMYGRDSAYQSITHYRPVSASRSSLDLSYYPTSSSTSFMSSSSSSSSWLTRRAIRPENRAPGAGLGQDRQVPLWGQLLLFLVFVIVLFFIYHFMQAEEGNPF
partner: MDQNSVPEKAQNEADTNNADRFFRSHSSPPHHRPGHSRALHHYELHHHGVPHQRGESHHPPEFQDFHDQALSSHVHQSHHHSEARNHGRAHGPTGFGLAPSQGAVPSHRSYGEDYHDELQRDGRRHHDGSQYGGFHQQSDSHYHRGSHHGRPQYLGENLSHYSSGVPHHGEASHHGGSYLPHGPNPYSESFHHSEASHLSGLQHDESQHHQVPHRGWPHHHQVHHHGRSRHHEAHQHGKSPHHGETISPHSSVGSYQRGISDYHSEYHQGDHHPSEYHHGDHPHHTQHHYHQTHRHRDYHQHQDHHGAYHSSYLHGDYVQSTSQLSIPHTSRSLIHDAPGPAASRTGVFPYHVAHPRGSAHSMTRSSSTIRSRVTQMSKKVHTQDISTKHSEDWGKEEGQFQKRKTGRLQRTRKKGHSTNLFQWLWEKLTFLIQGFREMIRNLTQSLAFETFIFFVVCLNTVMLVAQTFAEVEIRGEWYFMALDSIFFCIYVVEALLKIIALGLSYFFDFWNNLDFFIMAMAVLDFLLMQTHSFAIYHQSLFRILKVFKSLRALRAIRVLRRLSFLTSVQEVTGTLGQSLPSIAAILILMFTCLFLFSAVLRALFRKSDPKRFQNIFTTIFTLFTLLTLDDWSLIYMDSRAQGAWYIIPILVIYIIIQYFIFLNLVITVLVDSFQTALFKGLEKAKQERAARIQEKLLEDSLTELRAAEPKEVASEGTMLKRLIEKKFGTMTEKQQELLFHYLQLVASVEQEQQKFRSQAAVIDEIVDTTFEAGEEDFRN
B3: Emerin (Homo sapiens), P50402 (parent)
chain: B2 chain
partner: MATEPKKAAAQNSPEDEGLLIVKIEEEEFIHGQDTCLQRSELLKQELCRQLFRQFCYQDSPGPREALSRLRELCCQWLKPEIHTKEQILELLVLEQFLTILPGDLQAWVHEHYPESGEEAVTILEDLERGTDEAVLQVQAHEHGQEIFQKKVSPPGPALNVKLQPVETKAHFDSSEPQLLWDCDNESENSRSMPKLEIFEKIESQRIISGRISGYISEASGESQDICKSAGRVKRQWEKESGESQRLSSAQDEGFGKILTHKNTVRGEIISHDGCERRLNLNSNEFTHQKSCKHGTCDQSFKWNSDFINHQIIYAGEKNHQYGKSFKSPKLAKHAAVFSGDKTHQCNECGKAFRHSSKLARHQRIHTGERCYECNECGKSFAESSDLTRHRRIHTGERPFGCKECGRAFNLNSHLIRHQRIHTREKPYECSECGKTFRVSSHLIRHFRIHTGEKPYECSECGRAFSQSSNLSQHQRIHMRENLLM
B4: Glycophorin-B (Homo sapiens), P06028 (parent)
chain: MYGKIIFVLLLSEIVSISALSTTEVAMHTSTSSSVTKSYISSQTNGETGQLVHRFTVPAPVVIILIILCVMAGIIGTILLISYSIRRLIKA
B5: Beta-crystallin A4 (Homo sapiens), P53673 (parent)
chain: MTLQCTKSAGPWKMVVWDEDGFQGRRHEFTAECPSVLELGFETVRSLKVLSGAWVGFEHAGFQGQQYILERGEYPSWDAWGGNTAYPAERLTSFRPAACANHRDSRLTIFEQENFLGKKGELSDDYPSLQAMGWEGNEVGSFHVHSGAWVCSQFPGYRGFQYVLECDHHSGDYKHFREWGSHAPTFQVQSIRRIQQ
partner: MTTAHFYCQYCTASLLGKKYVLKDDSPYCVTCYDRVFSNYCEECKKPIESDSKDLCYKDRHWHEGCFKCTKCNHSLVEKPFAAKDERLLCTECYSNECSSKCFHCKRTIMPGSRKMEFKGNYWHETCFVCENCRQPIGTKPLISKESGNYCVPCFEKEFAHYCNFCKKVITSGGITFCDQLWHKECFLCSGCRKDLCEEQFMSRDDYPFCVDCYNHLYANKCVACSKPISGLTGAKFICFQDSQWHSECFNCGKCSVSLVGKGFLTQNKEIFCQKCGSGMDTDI

Variants of: B1
Conditions: with wwp1_human WWP1, Q9H0M0
In the case of N197I, the “effect of a mutation on the interaction” value is reported as “with no effect”. With I170V the “effect of a mutation on the interaction” value was “with no effect”.

Variants of: B1
Conditions: with crx_human CRX
With N197I the “effect of a mutation on the interaction” value was “with no effect”. For I170V, the “effect of a mutation on the interaction” value was “with no effect”.

Variants of: B1
Conditions: with wwp2_human WWP2, O00308
In the case of N197I, the “effect of a mutation on the interaction” value is reported as “with no effect”. With I170V the “effect of a mutation on the interaction” value was “with no effect”.

Variants of: B1
Conditions: with smad4_human SMAD4, Q13485
In the case of N197I, the “effect of a mutation on the interaction” value is reported as “with no effect”. I170V was tested, and the “effect of a mutation on the interaction” value was “with no effect”.

Variants of: B1
Conditions: with meox2_human MEOX2, P50222
In the case of N197I, the “effect of a mutation on the interaction” value is reported as “with no effect”. In the case of I170V, the “effect of a mutation on the interaction” value is reported as “with no effect”.

Variants of: B1
Conditions: with ccd33_human CCDC33, Q8N5R6
For N197I, the “effect of a mutation on the interaction” value was “with no effect”. I170V was tested, and the “effect of a mutation on the interaction” value was “with no effect”.

Variants of: B2
Conditions: with ctsr1_human CATSPER1, Q8NEC5
In the case of S54F, the “effect of a mutation on the interaction” value is reported as “with no effect”. For P183T, the “effect of a mutation on the interaction” value was “with no effect”. For P183H, the “effect of a mutation on the interaction” value was “with no effect”. In the case of D72V, the “effect of a mutation on the interaction” value is reported as “with no effect”.

Variants of: B3
Conditions: with zn165_human ZNF165, P49910
S54F was tested, and the “effect of a mutation on the interaction” value was “with no effect”. In the case of D72V, the “effect of a mutation on the interaction” value is reported as “with no effect”. For P183T, the “effect of a mutation on the interaction” value was “with no effect”. For P183H, the “effect of a mutation on the interaction” value was “with no effect”.

Variants of: B4
Conditions: with ubql1_human UBQLN1, Q9UMX0
T48M was tested, and the “effect of a mutation on the interaction” value was “with no effect”.

Variants of: B5
Conditions: with fhl5_human FHL5, Q5TD97
With F94S the “effect of a mutation on the interaction” value was “disrupting interaction strength”. With V36M the “effect of a mutation on the interaction” value was “disrupting interaction strength”. For L69P, the “effect of a mutation on the interaction” value was “disrupting interaction strength”.
